Source: the nanobody polyreactivity screen of Harvey et al. (2022)

assay: yeast display, Sf9 membrane polyspecificity reagent, FACS + sequencing; frameworks hold sequencing errors
How it was run: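 Galactose induction of a Saccharomyces cerevisiae BJ5465 synthetic nanobody display library ran 36–48 hours. The cells were then stained for 1 hour at 4 °C with 10% biotinylated, detergent-solubilized Sf9 membrane reagent, pulled down on streptavidin microbeads and FACS-sorted into low and high (top ~1%) gates on expression and reagent-binding fluorescence. Labels for polyreactivity follow the gate of origin.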

Sequence	polyreactivity (PSR sort gate)
QVQLVETGGGLVQAGGILRLSCAASGRIFGYNTMGWYRQAPGKERELVARISYDVDSTYYADSVKGRFTISRDNAKNTVYLQMNSLKPEDTAVYYCNARRSNLGSYIEYFGFDYWGQGTQVTVSS	low polyreactivity
QVQLVETGGGLVQAGGSHRLSCAASGYIFFGNAMGWYRQAPGKERELVASIRWRGTSTYYADSVKGRFTISRDNAKNTGYLHMNSLKPEDTAVYYCAADVVRSNFYGTFLYDYDYWGQGTQVTVSS	low polyreactivity
QVQLVETGGGLVQAGGSLRISCAASGLILDGYALGWYRQAPGKERELVAAITRSGGRTYYADSVKWRFTISRDNAKNTVYLQMNRLKPEDTAVYDCAALGWSGRYRYDYWGQGTLVTVSS	high polyreactivity
QVQLVETGGGLVQAGGSLRISCAASGLTFYLYAMGWYRQSPGKERELVAAISSTGITNYADSVKGRFTISRDNAKNTVYLQMNSLNPEDTAVYYCNADYHPFFFEFNDWGQGTQVTVSS	high polyreactivity
QVQLVETGGGLVQAGGSLRLICAASGSTFWRNAMGWYRQAPGKERELVATISKSGGRTYYADSVKGRFTISRDNAKNTVYLQMNRLKPEDTAVYYCAADQYWYKPYVGELYDYDYWGQGTQVTVSS	low polyreactivity
QVQLVETGGGLVQAGGSLRLRCAASGSIFGGYAMGWYRQAPGKERELVAAISSGGSTYYADSVKGRFTISRDNAKNTVYLQMNSLKPEDTAVYYCATSTYAYRRNSYYYTRPRFGYWGQGTQVTVSS	high polyreactivity
QVQLVETGGGLVQAGGSLRLSCAASGFIFGYYAMGWYRQAPGKERELVADITSGGSTYYADSVKGRFIISRDNAKNTVYLQMNSLKPEDTAVYYCNKAWELVSQSLYYTEYNYWGQGTQVTVSS	low polyreactivity
QVQLVETGGGLVQAGGSLRLSCAASGFIFHPNTMGWYSPAPGKERELVAGISYSGGITYTDSVKGRFTISRDNAKNTVYLQMNSLKPEDTAVYYCSAGDKYHYYWGQGTQVTVSS	low polyreactivity
QVQLVETGGGLVQAGGSLRLSCAASGFILSLYAMGWYRQAPGKERELVAAISRSGASTSYADSVKGRFTISRDNAKNSVYLQMNSLKPEDTAVYYCNVRRWPYSPGYDYWGQGTQVTVSS	high polyreactivity
QVQLVETGGGLVQAGGSLRLSCAASGFTFEGYAMGWYRQAPGKERELVAAINGSGGSTYYADSVKGRFTISRDNAKNTVYLQMNSLKPEDTAVYYCAKTDAFYRGYGYWGQGTQVTVSS	low polyreactivity
QVQLVETGGGLVQAGGSLRLSCAASGFTFPNAMGWYRQAPGKERELVATISSSGGSTYYADSVKGRFTISRDNAKNTVYLQMNSLKPEDTEVYYCAASTRQYWIYRAYRDEYWGQGTQVTVSS	low polyreactivity
QVQLVETGGGLVQAGGSLRLSCAASGFTFTSYAMGWYRQAPGKERELVARITSSTGSTYYADSVKGRFTISRDNAKNTVDLQMNSMKPEDTAVYYCNARRQRNKSYNYWGQGTEVTVSS	high polyreactivity
QVQLVETGGGLVQAGGSLRLSCAASGGIFYPNDMGWYRQAPGKEREFVAAITSSSGSTYADSVKGRFTISRDNAKNTVYLQMNSLKPEDTAVYYCATPPDDKGGGYLGYDYWGQGTQVTVSS	low polyreactivity
QVQLVETGGGLVQAGGSLRLSCAASGITFRGYAMGWYRQAPGKERELVAAISGSGGTTYYADSVKGRFTISRDNAKNTVYLQMNSLKPEDTAVYYCNAKAVRGRYVWYDYWGQGTQVTVSS	high polyreactivity
QVQLVETGGGLVQAGGSLRLSCAASGLSFGRNAIGSYRQAPGKERELVAAISRSGGRTSYADSVKGRFTISRDTAKNTVYLQMNSLKPEDTAVYYCAARSDVYTHDYWGQATQVTVSS	high polyreactivity
QVQLVETGGGLVQAGGSLRLSCAASGRIFGYYTMGWYRPAPGKERELVADSSGGNTSYADSVKGRFTISRDNAKNTVYLQMNSLKPEDTAVYYCAKDLPGAWRGDDYWGQGTLVTVSS	low polyreactivity
QVQLVETGGGLVQAGGSLRLSCAASGRIFLKYAMGWYRQAPGKERELVAAISRRGASTYYADSVKGRFTISRDNAKNTVYLQMNSLKPEDTAVYYCNARTSSGMDYWGQGTQVTVSS	high polyreactivity
QVQLVETGGGLVQAGGSLRLSCAASGRIFRTNAMGWYRQAPGKEREFVAAISKDGGRTYYADSVKGRFTISRDNAKNTVYLQMNSLKPEDTAVYYCNARHRYYRYGYWGQGTQVTVSS	high polyreactivity
QVQLVETGGGLVQAGGSLRLSCAASGRTFGYYTMGCYRQAPGKERELVAGISSAGSTNYADSVKGRFTISRDNAKNTVYLQMNSLKPADTAVYYCAARTYKVIQNNSWETYYYWGQGTQVTVSS	high polyreactivity
QVQLVETGGGLVQAGGSLRLSCAASGRTFHRYAVGWYRQAPGKVRELVAAISFSGGSTYYADSVKGRFTISRDNAKNTVYLQMNSLKPEDTAVYYCAPRAVWSSWGRRYDSWGEGTQVTVSS	high polyreactivity
QVQLVETGGGLVQAGGSLRLSCAASGRTFTGNAMGWYRQEPGKERELVADISSDGSTNYADSVKGRFTISRDNAKNTVYLQMNSLKPEDTAVYYCAADPFWTYYIDYDYWGQGTQVTVSS	low polyreactivity
QVQLVETGGGLVQAGGSLRLSCAASGRTIGFYAMGWYRQAPGKERELVAAINRSGDSTYYADSVKGRFTISRDNAKNTVYLHMNSLKPEDTAVYYCAARRSTGYGYWGQGTQVTVSS	high polyreactivity

Sequence	polyreactivity (PSR sort gate)
QVQLVETGGGLVQAGGSLRLSCAASGSIFGPYAMAWYRQAPGKERELVAVISRSGGSTYYADSVKGRFTISRDNAKNTVYLQMNSLKPEDTAVYYCAAYRGPRADYYWGQGTQVTVSS	high polyreactivity
QVQLVETGGGLVQAGGSLRLSCAASGSIFHYYAKGWYRQAPGKERELVAAISWSGVTTYYADSVKGRFTISRDNAKNTVYLQMNSLKPEDTAVYYCAADSWRYPYYYWGQGTQVNVSS	high polyreactivity
QVQLVETGGGLVQAGGSLRLSCAASGSIFLVYAMGWNRPAPGKQRQVVAAIRWSGGSTYYADSVKGRFTISRDNAKKTVYLQMNSLKPEDTAVYYCNAGESYSVKGGPYDSDYWGQGTQVTVSS	low polyreactivity
QVQLVETGGGLVQAGGSLRLSCAASGSIFTKYAMGRYRQAPGKERELVAAISWSGVSTYYADSVKGRFTISRDNAKNTVYLLMNSLKPEDTAVYYCNTRRYRSYGTTRYCFWGQGTQVTVSS	high polyreactivity
QVQLVETGGGLVQAGGSLRLSCAASGSIFYAYAMGWYRQAPGKERELVATITSGGSTNYADSVKGRFTISRDNAKNTVYLQMNSLKPEDTAVYYCAVDISYSLGGGFGYDYWGQGTQVTVSS	low polyreactivity
QVQLVETGGGLVQAGGSLRLSCAASGSTFAKYVMGWYRPAPGKERELVAAISRRGSSTYYADSEKGRFTISRDYAKNTVYLQMNSLKPEDTAVYYCAARFRYSGFEGMDYWGQGNQVTVSS	high polyreactivity
QVQLVETGGGLVQAGGSLRLSCAASGSTFDYNAMGWYRQAPGKERELVASITESGDSTYYADSVKGRFTISRDNAKNTVYLQMNSLKPEDTAVYYCAATQVHWVYVVYYEYEYWGQGTQVTVSS	low polyreactivity
QVQLVETGGGLVQAGGSLRLSCAASGSTFEYNAMGWYRQAPGKERALVAGISSGGSTYYADSVKGRFTISRDNAKNTVYLQMNSLKPEDTAVYYCATSEASFATWDRYTELDYWGQGTQVTVSS	low polyreactivity
QVQLVETGGGLVQAGGSLRLSCAASGSTFGGYAMGWYRQAPGKERELVATITGGGSTNYADSVKGRFTISRDNAKNTVYLQMNSLKPEDSAVYYCAKVRTGQSRSVGYDYWGQGTQVTVSS	low polyreactivity
QVQLVETGGGLVQAGGSLRLSCAASGSTFKGYAMGWYRQSPGKERELVAAISRSGTRTYYADSVKGRFTISRDNAKNTVYLQMNSLKPEDTAVSFCNKDTGYIAHDNENGRDYWGQGTQVTVSS	low polyreactivity
QVQLVETGGGLVQAGGSLRLSCAASGSTFRFYVMGWYRQAPGKERELVAAISTSGGSTYYADSVKGRFTISRDTAKNTVYLQMNSLKPEDTAVYYCAADLIASLRPYYQYDYWGQGTQVTVSS	low polyreactivity
QVQLVETGGGLVQAGGSLRLSCAASGSTFTRYGMGWYRQAPGKERELVADITTSGSSTYYADSVKGRFTISRDNAKNTVYLQMNSLKPEDTAVYYCAADWSSWGFDYWGQGTQVTVSS	low polyreactivity
QVQLVETGGGLVQAGGSLRLSCAASGSTFYKYGMGWYRPAPGKERELVAAISGSGDSTYYADSVKGRFTISRDNAKNTVYLQMNSLKPEDTAVSYCNAGPWWFLHEYDYWGQGTQVTVSS	low polyreactivity
QVQLVETGGGLVQAGGSLRLSCAASGTFHWYAMGWYRPAPGKERELVAAITGSGGNTYYADSVKGRFTISRDNAKNTVYLQMNSLKPEDTAVYYCAARIYTWSVQYTGYGYWGQGTQVTVSS	high polyreactivity
QVQLVETGGGLVQAGGSLRLSCAASGYIFYVYAMGWYRQPPGKERELVAAINSGDITYYADSVKGRFTISRDNAKNTVYLQMNRLKPEDTAVYFGATVLILIYDYWGQGTQVTVSS	low polyreactivity
QVQLVETGGGLVQAGGSLRLSCAASVFTFPTYTMGWYRQAPGKEREFVARITKRGGSTYYADSVKGRFTISRVNVKNTVYLQRKCVKPEDTAVYYCDAGFWWSSYGYWGQGSQVTVSS	high polyreactivity
QVQLVETGGGLVQAGGSLRLSCAGSVSIFNRNAMGWYRQAPGKERELVAAISNSGARTYYADSVKGRFTISRDNAKNTVYLQMNSLKPEDTAVYYCTAVRRRSKLYNYWGQGTQVTVSS	high polyreactivity
QVQLVETGGGLVQAGGSLRLSCAHSGSIFASNAMGWYRHAPGKEREFVAAIRYSGGITYYADSVKGRFTISRDNAKNTVYLQMTSLKPEDTAVYYCAAYGWGNRWYSRFDYWGQGTQVTVSS	high polyreactivity
QVQLVETGGGLVQAGGSLRLSCAPSGRIFGIYAMGWYRQAPGKERELVASITDGTITNYADSVKGRFTISRDNAKNTVYLQMNSLKPVDTAVYYFAAGTQAHAYVVRPIEMDYWGQGTQVTVSS	low polyreactivity
QVQLVETGGGLVQAGGSLRLSCAPSGSTFYYYVMGWYRPPPGNERELVAAINSGGSTYYADSVKGRFTISRDNAKNTVYLQMNSLKPEDTAVYYCAKSWSYWYQYFYWGQGTQVTVSS	low polyreactivity
QVQLVETGGGLVQAGGSLRLSCEASGTIFTYAMGWYRQAPRKERELVAVISWSGASTYYADSVKGRLTISRDNAKNSVYLQMNSLKTEDTAVYYCAVYRYYKLVHLYGFDYWGQGTQVTVSS	high polyreactivity
